The values that follow are results of earlier work, collected in patent US20200069786A1, “COMPOSITION AND PROCESS FOR PREPARING VACCINE” (TREOS BIO ZRT., priority 2018, published 2020).

Where two headings read alike, the source gives them in different places.

The data set concerns TSA.
The mark [1] stands for this setting: TSA expression rate in LEUKEMIAS
Where [2] appears, read: TSA expression rate in BLADDER cancer.
Where [3] appears, read: TSA expression rate in Cervical cancer.
Setting [4] is: TSA expression rate in Esophageal.
[5] abbreviates: TSA expression rate in GASTRIC cancer.
Setting [6] is: TSA expression rate in HEAD and NECK.
Where [7] appears, read: TSA expression rate in LYMPHOMAS
[8] abbreviates: TSA expression rate in MELANOMA
[9] abbreviates: TSA expression rate in PEDIATRIC
The mark [10] stands for this setting: TSA expression rate in PROSTATE cancer.

B1: SCP3a (protein, UniProt Q8IZU3 1-236, looked up)
Synaptonemal complex protein 3: MVSSGKKYSRKSGKPSVEDQFTRAYDFETEDKKDLSGSEEDVIEGKTAVIEKRRKKRSSAGVVEDMGGEVQNMLEGVGVDINKALLAKRKRLEMYTKASLKTSNQKIEHVWKTQQDQRQKLNQEYSQQFLTLFQQWDLDMQKAEEQEEKILNMFRQQQKILQQSRIVQSQRLKTIKQLYEQFIKSMEELEKNHDNLLTGAQNEFKKEMAMLQKKIMMETQQQEIASVRKSLQSMLF
For B1, the “TSA Expression Rate (ER)” value (OVARIAN) was 25%. Further, the “Expression Rate (ER) %” value under setting [1] is on record as 47%.

B2: MAGE-A3 (protein, UniProt P43357 1-314, looked up)
Melanoma-associated antigen 3: MPLEQRSQHCKPEEGLEARGEALGLVGAQAPATEEQEAASSSSTLVEVTLGEVPAAESPDPPQSPQGASSLPTTMNYPLWSQSYEDSSNQEEEGPSTFPDLESEFQAALSRKVAELVHFLLLKYRAREPVTKAEMLGSVVGNWQYFFPVIFSKASSSLQLVFGIELMEVDPIGHLYIFATCLGLSYDGLLGDNQIMPKAGLLIIVLAIIAREGDCAPEEKIWEELSVLEVFEGREDSILGDPKKLLTQHFVQENYLEYRQVPGSDPACYEFLWGPRALVETSYVKVLHHMVKISGGPHISYPPLHEWVLREGEE
As for B2, the “TSA Expression Rate (ER)” value reads like this: (BRAIN) 42%; (BREAST) 28%; (HCC) 34%; (LUNG) 37%; (OVARIAN) 30%; (PANCREATIC) 11%. Also, where the note is “THYROID”, the “TSA Expression Rate (ER)” value was 22%. Besides, the “Expression Rate (ER) %” value runs as follows: under setting [2], 42%; (TSA expression rate in CRC) 22%; under setting [3], 16%; under setting [4], 66%; under setting [5], 37%; under setting [6], 40%. The “Expression Rate (ER) %” value is, setting by setting: (TSA expression rate in Kidney) 27%; under setting [1], 65%; under setting [7], 17%; under setting [8], 60%; under setting [9], 76%; under setting [10], 15%.

B3: SPAG1 (protein, UniProt Q07617 1-926, looked up)
Sperm-associated antigen 1: MTTKDYPSLWGFGTTKTFKIPIEHLDFKYIEKCSDVKHLEKILCVLRSGEEGYYPELTEFCEKHLQALAPESRALRKDKPAATAASFTAEEWEKIDGDIKSWVSEIKKEEDKMHFHETETFPAMKDNLPPVRGSNSCLHVGKEKYSKRPTKKKTPRDYAEWDKFDVEKECLKIDEDYKEKTVIDKSHLSKIETRIDTAGLTEKEKDFLATREKEKGNEAFNSGDYEEAVMYYTRSISALPTVVAYNNRAQAEIKLQNWNSAFQDCEKVLELEPGNVKALLRRATTYKHQNKLREATEDLSKVLDVEPDNDLAKKTLSEVERDLKNSEAASETQTKGKRMVIQEIENSEDEEGKSGRKHEDGGGDKKPAEPAGAARAAQPCVMGNIQKKLTGKAEGGKRPARGAPQRGQTPEAGADKRSPRRASAAAAAGGGATGHPGGGQGAENPAGLKSQGNELFRSGQFAEAAGKYSAAIALLEPAGSEIADDLSILYSNRAACYLKEGNCSGCIQDCNRALELHPFSMKPLLRRAMAYETLEQYGKAYVDYKTVLQIDCGLQLANDSVNRLSRILMELDGPNWREKLSPIPAVPASVPLQAWHPAKEMISKQAGDSSSHRQQGITDEKTFKALKEEGNQCVNDKNYKDALSKYSECLKINNKECAIYTNRALCYLKLCQFEEAKQDCDQALQLADGNVKAFYRRALAHKGLKNYQKSLIDLNKVILLDPSIIEAKMELEEVTRLLNLKDKTAPFNKEKERRKIEIQEVNEGKEEPGRPAGEVSMGCLASEKGGKSSRSPEDPEKLPIAKPNNAYEFGQIINALSTRKDKEACAHLLAITAPKDLPMFLSNKLEGDTFLLLIQSLKNNLIEKDPSLVYQHLLYLSKAERFKMMLTLISKGQKELIEQLFEDLSDTPNNHFTLEDIQALKRQYEL
In the case of B3, the “TSA Expression Rate (ER)” value was 31% (BREAST); 11% (HCC); 71% (LUNG); 31% (OVARIAN); 93% (PANCREATIC). The “Expression Rate (ER) %” value is reported as 55% (TSA expression rate in CRC), 7% under setting [6], 11% (TSA expression rate in Kidney) and 27% under setting [10].

B4: MAGE-C1 (protein, UniProt O60732 1-1142, looked up)
Melanoma-associated antigen C1: MGDKDMPTAGMPSLLQSSSESPQSCPEGEDSQSPLQIPQSSPESDDTLYPLQSPQSRSEGEDSSDPLQRPPEGKDSQSPLQIPQSSPEGDDTQSPLQNSQSSPEGKDSLSPLEISQSPPEGEDVQSPLQNPASSFFSSALLSIFQSSPESTQSPFEGFPQSVLQIPVSAASSSTLVSIFQSSPESTQSPFEGFPQSPLQIPVSRSFSSTLLSIFQSSPERTQSTFEGFAQSPLQIPVSPSSSSTLLSLFQSFSERTQSTFEGFAQSSLQIPVSPSFSSTLVSLFQSSPERTQSTFEGFPQSPLQIPVSSSSSSTLLSLFQSSPERTHSTFEGFPQSLLQIPMTSSFSSTLLSIFQSSPESAQSTFEGFPQSPLQIPGSPSFSSTLLSLFQSSPERTHSTFEGFPQSPLQIPMTSSFSSTLLSILQSSPESAQSAFEGFPQSPLQIPVSSSFSYTLLSLFQSSPERTHSTFEGFPQSPLQIPVSSSSSSSTLLSLFQSSPECTQSTFEGFPQSPLQIPQSPPEGENTHSPLQIVPSLPEWEDSLSPHYFPQSPPQGEDSLSPHYFPQSPPQGEDSLSPHYFPQSPQGEDSLSPHYFPQSPPQGEDSMSPLYFPQSPLQGEEFQSSLQSPVSICSSSTPSSLPQSFPESSQSPPEGPVQSPLHSPQSPPEGMHSQSPLQSPESAPEGEDSLSPLQIPQSPLEGEDSLSSLHFPQSPPEWEDSLSPLHFPQFPPQGEDFQSSLQSPVSICSSSTSLSLPQSFPESPQSPPEGPAQSPLQRPVSSFFSYTLASLLQSSHESPQSPPEGPAQSPLQSPVSSFPSSTSSSLSQSSPVSSFPSSTSSSLSKSSPESPLQSPVISFSSSTSLSPFSEESSSPVDEYTSSSDTLLESDSLTDSESLIESEPLFTYTLDEKVDELARFLLLKYQVKQPITKAEMLTNVISRYTGYFPVIFRKAREFIEILFGISLREVDPDDSYVFVNTLDLTSEGCLSDEQGMSQNRLLILILSIIFIKGTYASEEVIWDVLSGIGVRAGREHFAFGEPRELLTKVWVQEHYLEYREVPNSSPPRYEFLWGPRAHSEVIKRKVVEFLAMLKNTVPITFPSSYKDALKDVEERAQAIIDTTDDSTATESASSSVMSPSFSSE
As to B4, the “TSA Expression Rate (ER)” value by setting is: (BRAIN) 13%; (BREAST) 16%; (HCC) 20%; (OVARIAN) 20%; (PANCREATIC) 0%; (THYROID) 22%. For the same molecule, the “Expression Rate (ER) %” value by setting is: under setting [2], 27%; under setting [4], 12%; under setting [5], 6%; under setting [6], 15%; (TSA expression rate in Kidney) 0%; under setting [1], 70%. The “Expression Rate (ER) %” value reads like this: (TSA expression rate in LUNG cancer) 19%; under setting [7], 13%; under setting [8], 45%; under setting [9], 39%.

B5: DPPA2 (protein, UniProt Q7Z7J5 1-298, looked up)
Developmental …: MSDANLDSSKKNFLEGEVDDEESVILTLVPVKDDANMEQMEPSVSSTSDVKLEKPKKYNPGHLLQTNEQFTAPQKARCKIPALPLPTILPPINKVCRDTLRDWCQQLGLSTNGKKIEVYLRLHRHAYPEQRQDMPEMSQETRLQRCSRKRKAVTKRARLQRSYEMNERAEETNTVEVITSAPGAMLASWARIAARAVQPKALNSCSIPVSVEAFLMQASGVRWCVVHGRLLSADTKGWVRLQFHAGQAWVPTTHRRMISLFLLPACIFPSPGIEDNMLCPDCAKRNKKMMKRLMTVEK
Turning to B5, the “TSA Expression Rate (ER)” value was 30% (LUNG) and 31% (OVARIAN). Besides, the “Expression Rate (ER) %” value reads like this: (TSA expression rate in CRC) 44%; under setting [5], 100%.

B6: PLAC1 (protein, UniProt Q9HBJ0 23-212, looked up)
Placenta-specific protein 1: QSPMTVLCSIDWFMVTVHPFMLNNDVCVHFHELHLGLGCPPNHVQPHAYQFTYRVTECGIRAKAVSQDMVIYSTEIHYSSKGTPSKFVIPVSCAAPQKSPWLTKPCSMRVASKSRATAQKDEKCYEVFSLSQSSQRPNCDCPPCVFSEEEHTQVPCHQAGAQEAQPLQPSHFLDISEDWSLHTDDMIGSM
As to B6, the “TSA Expression Rate (ER)” value by setting is: (BREAST) 4%; (HCC) 41%; (LUNG) 68%; (OVARIAN) 21%; (PANCREATIC) 44%. For the same molecule, the “Expression Rate (ER) %” value is recorded as 27% (TSA expression rate in CRC) and 100% under setting [10].

B7: MAGE-A1 (protein, UniProt P43355 1-309, looked up)
Melanoma-associated antigen 1: MSLEQRSLHCKPEEALEAQQEALGLVCVQAATSSSSPLVLGTLEEVPTAGSTDPPQSPQGASAFPTTINFTRQRQPSEGSSSREEEGPSTSCILESLFRAVITKKVADLVGFLLLKYRAREPVTKAEMLESVIKNYKHCFPEIFGKASESLQLVFGIDVKEADPTGHSYVLVTCLGLSYDGLLGDNQIMPKTGFLIIVLVMIAMEGGHAPEEEIWEELSVMEVYDGREHSAYGEPRKLLTQDLVQEKYLEYRQVPDSDPARYEFLWGPRALAETSYVKVLEYVIKVSARVRFFFPSLREAALREEEEGV
B7: the “TSA Expression Rate (ER)” value (BRAIN) was 41%; the “TSA Expression Rate (ER)” value (BREAST) is reported as 31%; the “TSA Expression Rate (ER)” value (HCC) is 56%; the “TSA Expression Rate (ER)” value (LUNG) was 42%; the “TSA Expression Rate (ER)” value (OVARIAN) is 24%; the “TSA Expression Rate (ER)” value (PANCREATIC) is given as 27%. The “TSA Expression Rate (ER)” value (THYROID) is on record as 17%. In addition, the “Expression Rate (ER) %” value is reported as 34% under setting [2]; 14% (TSA expression rate in CRC); 17% under setting [3]; 46% under setting [4]; 31% under setting [5]; 23% under setting [6]. The “Expression Rate (ER) %” value is reported as 11% (TSA expression rate in Kidney); 20% under setting [1]; 9% under setting [7]; 37% under setting [8]; 44% under setting [9]; 13% under setting [10].
